Laboratory results published in US20050112126A1 (Genentech, published 2005).
Where a chain is given by its changes, count along the chain named. Numbers in names are those of the source.

T1: VEGF121 (human, UniProt P15692 27-147)
T1 construct: mature; Immobilized on the biosensor chip via primary amino groups; also called Purified VEGF121
T1 sequence (looked up): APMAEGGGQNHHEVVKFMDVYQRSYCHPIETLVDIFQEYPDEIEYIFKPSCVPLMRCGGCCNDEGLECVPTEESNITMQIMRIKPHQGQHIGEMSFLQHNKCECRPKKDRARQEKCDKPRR

B1: hu2.1 (Fab, name in Kabat numbering, V domains shown)
VH: EVQLVESGGGLVQPGGSLRLSCAASGYTFTNYGMNWIRQAPGKGLEWVGWINTYTGEPTYAADFKRRFTISRDNSKNTVYLQMNSLRAEDTAVYYCAKYPHYYGSSHWYFDVWGQGTLVTVSS
VL: DIQMTQSPSSLSASVGDRVTITCSASQDISNYLNWYQQKPGKAPKLLIYFTSSLHSGVPSRFSGSGSGTDYTLTISSLQPEDFATYYCQQYSTVPWTFGQGTKVEIK
notes: soluble Fab with human constant domains
B2: hu2.10 (Fab, V domains shown)
VH: B1 VH with R72L, N74T, K76A, N77S
VL: B1 VL
notes: Soluble Fab with human constant domains; also called consensus clone hu2.10
B3: hu2.2 (Fab, name in Kabat numbering, V domains shown)
VH: B1 VH
VL: B1 VL with M4L
notes: as for B1
B4: hu2.10V (Fab, V domains shown)
VH: B1 VH with R72L, N74T, K76A, N77S
VL: B1 VL with L46V
notes: Soluble Fab with human constant domains; also called hu2.10 with mutation VL Leu->Val
B5: hu2.6 (Fab, name in Kabat numbering, V domains shown)
VH: B1 VH with F68T, R72L, N74T, K76A, N77S
VL: B1 VL with M4L, Y71F
notes: as for B1
B6: hu2.7 (Fab, name in Kabat numbering, V domains shown)
VH: B1 VH
VL: B1 VL with M4L, Y71F
notes: as for B1
B7: pY0192 VH Y109A (Fab, V domains shown)
VH: EVQLVESGGGLVQPGGSLRLSCAASGYTFTNYGINWVRQAPGKGLEWVGWINTYTGEPTYAADFKRRFTFSLDTSKSTAYLQMNSLRAEDTAVYYCAKYPHYYGSSHWAFDVWGQGTL
VL: DIQLTQSPSSLSASVGDRVTITCRANEQLSNYLNWYQQKPGKAPKVLIYFTSSLHSGVPSRFSGSGSGTDFTLTISSLQPEDFATYYCQQYSTVPWTFGQGTKVEIKR
notes: Ala-scan variant of pY0192; Fab on phage
B8: pY0192 VL Q28A (Fab, V domains shown)
VH: B7 VH with A109Y
VL: B7 VL with Q28A
notes: as for B7
B9: pY0192 VL T51A (Fab, V domains shown)
VH: B7 VH with A109Y
VL: B7 VL with T51A
notes: as for B7
B10: pY0192 VL S53A (Fab, V domains shown)
VH: B7 VH with A109Y
VL: B7 VL with S53A
notes: as for B7
B11: pY0192 VL H55A (Fab, V domains shown)
VH: B7 VH with A109Y
VL: B7 VL with H55A
notes: as for B7
B12: pY0192 VL A25S (Fab, V domains shown)
VH: B7 VH with A109Y
VL: B7 VL with A25S
notes: as for B7
B13: pY0192 VL T93A (Fab, V domains shown)
VH: B7 VH with A109Y
VL: B7 VL with T93A
notes: as for B7
B14: pY0192 VL V94A (Fab, V domains shown)
VH: B7 VH with A109Y
VL: B7 VL with V94A
notes: as for B7
B15: pY0192 VL L54A (Fab, V domains shown)
VH: B7 VH with A109Y
VL: B7 VL with L54A
notes: as for B7
B16: pY0192 VL L33A (Fab, V domains shown)
VH: B7 VH with A109Y
VL: B7 VL with L33A
notes: as for B7
B17: pY0192 VL L29A (Fab, V domains shown)
VH: B7 VH with A109Y
VL: B7 VL with L29A
notes: as for B7
B18: pY0192 VL T97A (Fab, V domains shown)
VH: B7 VH with A109Y
VL: B7 VL with T97A
notes: as for B7
B19: pY0192 VL Y91A (Fab, V domains shown)
VH: B7 VH with A109Y
VL: B7 VL with Y91A
notes: as for B7
B20: pY0192 VL P95A (Fab, V domains shown)
VH: B7 VH with A109Y
VL: B7 VL with P95A
notes: as for B7
B21: pY0192 VL R24A (Fab, V domains shown)
VH: B7 VH with A109Y
VL: B7 VL with R24A
notes: as for B7
B22: pY0192 VL S52A (Fab, V domains shown)
VH: B7 VH with A109Y
VL: B7 VL with S52A
notes: as for B7
B23: pY0192 VL N26A (Fab, V domains shown)
VH: B7 VH with A109Y
VL: B7 VL with N26A
notes: as for B7
B24: pY0192 VL E27A (Fab, V domains shown)
VH: B7 VH with A109Y
VL: B7 VL with E27A
notes: as for B7
B25: pY0192 VL N34A (Fab, V domains shown)
VH: B7 VH with A109Y
VL: B7 VL with N34A
notes: as for B7
B26: pY0192 VL S30A (Fab, V domains shown)
VH: B7 VH with A109Y
VL: B7 VL with S30A
notes: as for B7
B27: pY0192 VL Y32A (Fab, V domains shown)
VH: B7 VH with A109Y
VL: B7 VL with Y32A
notes: Ala-scan variant of pY0192; Fab on phage; also called Y32A (VL)
B28: pY0192 VL S56A (Fab, V domains shown)
VH: B7 VH with A109Y
VL: B7 VL with S56A
notes: as for B7
B29: pY0192 VL S92A (Fab, V domains shown)
VH: B7 VH with A109Y
VL: B7 VL with S92A
notes: as for B7
B30: pY0192 VL Q89A (Fab, V domains shown)
VH: B7 VH with A109Y
VL: B7 VL with Q89A
notes: as for B7
B31: pY0192 VL F50A (Fab, V domains shown)
VH: B7 VH with A109Y
VL: B7 VL with F50A
notes: as for B7
B32: pY0192 VL N31A (Fab, V domains shown)
VH: B7 VH with A109Y
VL: B7 VL with N31A
notes: Ala-scan variant of pY0192; Fab on phage; also called N31A (VL)
B33: pY0192 VL Q90A (Fab, V domains shown)
VH: B7 VH with A109Y
VL: B7 VL with Q90A
notes: as for B7

The binders below were run against T1, VEGF121 (assay: BIAcore SPR, Fab over immobilized VEGF121).
Method: VEGF₁₂₁ was covalently immobilized on the biosensorchip via primary amino groups. Binding of humanized A4.6.1 Fab variants was measured by flowing solutions of Fab in PBS/0.05% TWEEN 20™ over the chip at a flow rate of 20 μL/min. Following each binding measurement, residual Fab was stripped from the immobilized ligand by washing with 5 μL of 50 mM aqueous HCl at 3 μL/min. Binding profiles were analyzed by nonlinear regression using a simple monovalent binding model (BIAevaluation software v2.0; Pharmacia).

Binder | KD(A4.6.1)/KD(mut) as headed (values read as KD(mut)/KD(A4.6.1)) [ratio] | Kd [nM] | koff [s⁻¹] | kon [M⁻¹ s⁻¹] | fold tighter KD than hu2.0 [fold] | fold improvement in KD vs hu2.10 [fold]
B1 | 170 | 260 | 0.0018 | 7000 | – | –
B2 | 35 | 55 | 0.00035 | 6300 | ≥ 125 | –
B3 | 210 | 340 | 0.0016 | 4700 | – | –
B4 | 5.8 | 9.3 | 0.00018 | 20000 | – | 6
B5 | 40 | 67 | 0.00045 | 6700 | – | –
B6 | 230 | 360 | 0.0024 | 6700 | – | –

These binders were tested against T2, VEGF (human, UniProt P15692-4 27-191, limits assumed) (assay: competitive phage-ELISA, relative to pY0192).
T2 construct: Biotinylated in the KDR-IgG ELISA, amine-coupled to the chip in BIAcore; also called biotinylated VEGF; vascular endothelial growth factor
T2 sequence (P15692 other isoform, or with tags, fused parts or gaps limits assumed): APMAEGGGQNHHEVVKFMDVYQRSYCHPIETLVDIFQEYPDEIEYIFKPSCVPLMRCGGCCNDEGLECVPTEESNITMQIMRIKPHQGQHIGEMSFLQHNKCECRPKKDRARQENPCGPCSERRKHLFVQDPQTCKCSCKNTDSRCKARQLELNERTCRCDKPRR
Method: In such an assay, phages were first serially diluted to determine a fractional saturation titer which was then held constant and used to incubate with varying concentrations of VEGF (starting at 200 nM to 0 nM) in solution. The mixture was then transferred onto plate precoated with VEGF (2 μg/mL) and blocked with 5% instant milk, and allowed to equilibrate for 1 hour at room temperature. Thereafter, the phage solution was removed and the remaining bound phages were detected with a solution of rabbit anti-phage antibody mixed with goat anti-rabbit conjugate of horse radish peroxidase. After an hour incubation at room temperature, the plate was developed with a chromogenic substrate, o-phenylenediamine (Sigma). The reaction was stopped with addition of ½ volume of 2.5 M H₂SO₄. Optical density at 492 nm was measured on a spectrophotometric plate reader.
IC50's were determined in a competitive phage-ELISA assay.

Binder | IC50 (mut)/IC50 (wt) [ratio]
B7 | 19
B8 | 1
B9 | 1
B10 | 1
B11 | 1
B12 | 1
B13 | 1
B14 | 2
B15 | 1
B16 | 2
B17 | 1
B18 | 1
B19 | 14
B20 | 3
B21 | 1
B22 | 1
B23 | 1
B24 | 1
B25 | 4
B26 | 2
B27 | 2
B28 | 1
B29 | 1
B30 | 4
B31 | 1
B32 | 2
B33 | 3
